Assay: soluble on expression in E. coli; label from the status in PepcDB or PDB records

| Sequence | soluble on expression in E. coli |
| --- | --- |
| MTGKLPKACVIGAGCSGFTTIKRLKDYGIPYDCFEMSDEVGGNWYYKNPNGLSACYESLHIDTSKWRLAFEDFPVPKDWPDFPHHAQLFQYFKDYVDHFGLRPTITFNTKVESAKRTADGLWAVTLSGGETQFYDVLFVCNGHHWDPRVPEYPGEFDGPAFHAHAYCDPFDPVDMRGKNVVVVGMGNSAMDIASELSQRPIAKNLWVSARRGVWVFPKYLNGKPADKTALPAWMPRKLGVALSRSVLKKTIGRMEDYGLPKPDHEPLEAHPSVSGEFLTRAGCGDIKFKPAIKALEGKRVRFTDDSVEDVDAIVFATGYKISFPFFDDPALLPDADHRLPLFKRMMKPEVPNLFYMGLAQPLPTLVNFAEQQAKLAAAYLAGQYALPPPAEMARITAKDEHRHTGHFYDSARHTIQVDFNVYCADLKKEIAKGEARARNAGGKLPVAARAEGQALAAELEHHHHHH | soluble |
| MGSDKIHHHHHHMRIDIDSFNVLQVLVEEGSFAKASERLHKAQSAVSYQVKKLEQHLGVTLFNRDKYRAELTPEGKVILIEGQRLLEQLANIEHLASRFSQGWEPKLELVIDGSLPMEPIMTALKRMSEHNVPTKIQLNMEFLGGVQHRFERDKADLMLVKDYRSGPYYDAKPLPSITSVLVVANSHPLALSKAVSLSQLQQHVELTIEDSSPSRLGRDELQFGGDKVFYLSGFIMKKNALLKGLGFGWMPDFLIGEELAAGELVMVDFMGGSRFNYTPQLVSTLARPLGRAGQLFTELILQEFDLFHQDLADGSSGSGLG | not soluble |
| MAKKKNVSVISVEKPTWFPLTDETGAFPVYGAPITIGTAVSIKPDVTTETTPDYGDSVVQDQYVAFGGAEVTLETNGYQNEVLAEITGGKKLKGGVLRSADDIASDGAFAYRRRKSNGKYRYTIFYKGKFALTSDETSTLEGSSVSYTHPEWTGSFVDVPGLGYMYSVDEDDEGVDLEMIKNWFTEVMDPRKENTTAVTGVTLDQTELNLKVGQTATLTPTITPDNASNKKYQFRSESEAIGTVTPIQGKVTAVGEGTTEIVVTTEDGNFTAKCTLNVTTAD | not soluble |
| MGSDKIHHHHHHMIRVLVLYFTRGGHTAKIASAIADQLKNRGAQVDLVDINSAAATRINWPDYQVVALGACVLYGTYDKTVFQFIEQHNQALSALPNSFFCVNVVARNPEKRIPENNKYLQKFIALSPWTPADLKIIAGKVDYPSWPWYDRLAIQLIMKMTKGPTDPKSVIDYTDWEDVKIYADHLLDLTEVTATT | not soluble |
| MAHHHHHHMSDEGFEDLFILDTDPEELYEELGPIGVGNYGSVIKARNRHTQEITAIKLVLLVDKDERDFVQREISILKHCRHPNIVHYYGAHKSLSKLWIVMEYCEGGSIDMVYKVLRHPLPEPLIAYVCRQVLLGLQYLHANRKIHRDIKGGNILLTRDGGVKLADFGVSTELSHSLSRRNTFVGTLLWMAPEAILELDYDEKADLWSLGITLIEMAEGAPPYIDTHPARALFMIPKMDPPSLQDKERWSPQMTLFLKRLLTKDHNARPTATTMLNDPFVLPENIGTQEQLKAVIDEVLAKKASIDPQRMRDYTDSSATFVERTSSDGGGGDDHSTDSRDEVQPHLTAKGLTNAPANSIEALDGAGTHLFFQDGTLLPLPMLYTQDISFDELCVGEELNGPFSLPVPSVESLLVPPEQQSTACHGGEALAHTMHVTAKLKEMLYYHKQLPYCRGLTDAEAAKSREMQLKYGSVLKSVYRL | not soluble |
| MSDQLEASIKNILEQKTLKWIFVGGKGGVGKTTCSCSLAAQLSKVRERVLLISTDPAHNISDAFSQKFTKTPTLVEGFKNLFAMEIDSNPNGEGVEMGNIEEMLQNAAQNEGGSGGFSMGKDFLQSFAGGLPGIDEAMSFGEMIKLIDSLDFDVVVFDTAPTGHTLRLLQFPTLLEKVFTKILSLQGMFGPMMNQFGGMFGMGGGSMNEMIEKMTTTLESVKKMNAQFKDPNCTTFVCVCIAEFLSLYETERLIQELSKQGIDTHNIIVNQLLFPDTDANGTVSCRKCASRQAIQSKYLTDIDELYEDFHVVKLPLLEAEVRGGPAILQFSERMVDPEANKN | not soluble |
| MIEFHNVHKTYRVAGKEIPALHPTNLRVDDGQVFGIIGHSGAGKSTLLRLINRLETPSGGQIVVDGEDVTALDANGLRRFRQQVGMIFQHFNLLASRTVADNVAMPLTLAGDMPRKQIDQRVAELLERVGLSDHAKKYPAQLSGGQKQRVGIARALATKPKILLCDEATSALDPQTTASVLQLLAEINRELKLTIVLITHEMDVIRRVCDQVAVMDAGVIVEQGKVADVFLHPQHSTTKRFVQEDDQVDENEQRDDFAHVQGRIVRLTFQGDATYAPLLGTVARETGVDYSILAGRIDRIKDTPYGQLTLAITGGDMDAAFARFTAADVHMEVLR | not soluble |
